The values below come from patent US20100291097A1.

The target of assay [1] is Monomer-enriched preparation of the Aβ1-42 peptide (W. M. Keck Facility peptide). The experiment in a line: ELISA, coated 2.2 µM; Ab 1:2 (start 0.5 µg/ml); mean of 3. A general note: ELISA stands for enzyme-linked immunosorbent assay.
The target in assay [2] is Oligomer-enriched preparation of the Aβ1-42 peptide (W. M. Keck Facility peptide). Described as above.
Assay [3] addresses Monomer-enriched preparation of the Aβ1-42 peptide (W. M. Keck Facility peptide). Briefly: ELISA, coated 2.2 µM; Ab 1:32 (start 0.5 µg/ml); mean of 3.
For assay [4], the target named is Oligomer-enriched preparation of the Aβ1-42 peptide (W. M. Keck Facility peptide). The assay is described as above.
Assay [5] shares this target. The experiment in a line: ELISA, coated 2.2 µM; Ab 1:8 (start 0.5 µg/ml); mean of 3.
Assay [6] concerns the target Monomer-enriched preparation of the Aβ1-42 peptide (W. M. Keck Facility peptide). The experiment in a line: ELISA, coated 2.2 µM; Ab 1:4 (start 0.5 µg/ml); mean of 3.
For assay [7], the target named is Oligomer-enriched preparation of the Aβ1-42 peptide (W. M. Keck Facility peptide). The experiment in a line: ELISA, coated 2.2 µM; Ab 1:128 (start 0.5 µg/ml); mean of 3.
Assay [8] concerns the target Monomer-enriched preparation of the Aβ1-42 peptide (W. M. Keck Facility peptide). The experiment in a line: ELISA, coated 2.2 µM; Ab 1:16 (start 0.5 µg/ml); mean of 3.
Assay [9] concerns the target Oligomer-enriched preparation of the Aβ1-42 peptide (W. M. Keck Facility peptide). The experiment in a line: ELISA, coated 2.2 µM; Ab 1:64 (start 0.5 µg/ml); mean of 3.

Chain of Monomer-enriched preparation of the Aβ1-42 peptide (W. M. Keck Facility peptide) (peptide, as listed by the source): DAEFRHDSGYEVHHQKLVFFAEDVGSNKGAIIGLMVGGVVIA
Chain of Oligomer-enriched preparation of the Aβ1-42 peptide (W. M. Keck Facility peptide) (peptide, as listed by the source): as above

6E10 control antibody: the O.D. is 3.59 O.D in assay [1]; 3.59 O.D in assay [2]; 1.36 O.D in assay [3]; 1.32 O.D in assay [4]; 2.98 O.D in [5]; 3.27 O.D in [6]. Further, the O.D. came out at 0.63 O.D in assay [7], 1.98 O.D in assay [8] and 0.92 O.D in [9].
